Data reported in patent publication US20210009683A1.
Residue numbers refer to the chain shown, from its start. Numbers in names are those of the source. Blank lines part the entries; values can stand above or below the binder they belong to.

Target: T1, CLEC-2 on washed mouse platelet (mouse) (UniProt Q9JL99)
T1 sequence (looked up): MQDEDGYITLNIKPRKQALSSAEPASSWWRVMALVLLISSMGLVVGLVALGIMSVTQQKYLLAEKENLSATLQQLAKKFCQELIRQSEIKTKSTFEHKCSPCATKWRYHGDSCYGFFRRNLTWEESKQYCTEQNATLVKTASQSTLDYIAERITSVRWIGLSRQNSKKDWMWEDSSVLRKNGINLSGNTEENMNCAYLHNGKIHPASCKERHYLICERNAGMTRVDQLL
Test: cell-based or functional assay

- platelet aggregation-starting time (light transmittance, washed mouse platelet mixed with CHO cells): 6 min
B1: wild-type human Aggrus expressed in CHO cells (CHO/Aggrus-WT) (ligand, UniProt Q86YL7 23-162, looked up)
chain: ASTGQPEDDTETTGLEGGVAMPGAEDDVVTPGTSEDRYKSGLTTLVATSVNSVTGIRIEDLPTSESTVHAQEQSPSATASNVATSHSTEKVDGDTQTTVEKDGLSTVTLVGIIVGVLLAIGFIGAIIVVVMRKMSGRYSP

- delay of the start of platelet aggregation against CHO/Aggrus-WT: 8 min
- platelet aggregation-starting time (light transmittance, washed mouse platelet mixed with CHO cells): 14 min
B2: Aggrus-D48A expressed in CHO cells (CHO/Aggrus-D48A) (ligand, human, UniProt Q86YL7 23-162, looked up)
chain: B1 chain with D26A
